Results on two molecules are retold here after PMC8350387, “Solution Structure of the dATP-Inactivated Class I Ribonucleotide Reductase From Leeuwenhoekiella blandensis by SAXS and Cryo-Electron Microscopy” (Frontiers in Molecular Biosciences, 2021).

Data set [1] concerns the target Leeuwenhoekiella blandensis class I ribonucleotide reductase radical-generating subunit NrdB (LbNrdB) (Leeuwenhoekiella blandensis). Nature of the data set: SEC-SAXS; LbNrdA and LbNrdB mixed at 85 μM each with 1 mM dATP and 2 mM magnesium acetate, 5 min, on Superdex S200; SEC buffer 50 mM Tris-HCl pH 7.6, 300 mM NaCl, 2 mM DTT, 1 mM Mg acetate, 0.4 mM dATP, 5% glycerol. For orientation: SEC sorts molecules by how far they enter the pores of the column.

The target is the same in data set [2]. The data set can be described thus: SEC-SAXS; LbNrdB alone, 350 μL of 11 mg/ml with 1 mM dATP loaded on Superdex S200; SEC buffer 50 mM Tris-HCl pH 7.6, 300 mM NaCl, 2 mM DTT, 1 mM Mg acetate, 0.4 mM dATP, 5% glycerol.
The target is the same in data set [3]. Nature of the data set: cryo-EM structure; LbNrdAB complex formed with dATP, isolated on Superdex 200 with on-column 0.05% glutaraldehyde cross-linking in HEPES buffer; single particle reconstruction at 8.2 Å, no symmetry imposed.
Data set [4] concerns the molecule itself. The data set can be described thus: SAXS; batch mode, LbNrdA 0.625-5 mg/ml in 50 mM Tris-HCl pH 7.6, 300 mM NaCl, 2 mM DTT, 5% glycerol, 2 mM magnesium acetate, 1 mM dATP; 10 °C.

For orientation: stoichiometry N means the number of molecules, sites or subunits per partner or assembly. Regarding “Leeuwenhoekiella blandensis class I ribonucleotide reductase radical-generating subunit NrdB (LbNrdB) (enzyme)”, the stoichiometry N in data set [1], in data set [2] and in data set [3] was 4 throughout.

B1: Leeuwenhoekiella blandensis class I ribonucleotide reductase catalytic subunit NrdA (LbNrdA) (enzyme, UniProt A3XHF8 1-600, looked up)
chain: MRENTTKLENSTETNVQHTKDNDLLKARRDALQDATEKNTDEPSFDWLTEHSRSFLAAGYLSEGVSAEERIREIADRAEEILRMPGFSDKFYKYMGEGYFSLASPVWSNFGKKRGLPISCFGSHIDDDMGNILYTQSEVGMMSKLGGGTSGYFGKIRHRGAAVKNNGYASGAVHIMQLFDKMVDVVSQGSVRRGRFSPYLPISHPDIKEFLEIGTEGNSIQQLTHGVTVDSTWMQEMIDGDTDKREVWAKVLQRRGEMGYPYIFYTDNANNGKPDVYKDKGHDIYASNLCTEIMLPSSDEWSFVCVLSSINVLHYDKWKNTDAVETMVCFLDAVLTEFIDKLEEYRDSDNRDHRQTFMFMERAYNFAKSNRALGLGVLGWHSLLQSKRHAFDSQEAYDLNSEIFREIKQRSYKASEELAEKFGEPETLKGYGRRNATLNAIAPTTSSAFILGQVSQGIEPIWSNVYVKDIAKIKTTIKNPFLEELFEEKGMNTPEVWRSVRDNDGSVQHLEFLTEQEKDVFKTYAEIDQMAIIYQAANRQNHIDQGQSINLLVHPDMPIKEINKIHITAWKLGLKSLYYQHSMNAAQKFKQKKECVSCEA
notes: NrdA (α subunit, subclass NrdAi, lacks an ATP-cone) of Leeuwenhoekiella blandensis; the homology model covers residues 40-596 and lacks 43 terminal residues per monomer; Dimer (α2) with dATP by SAXS; also called α2 (dimer); source: purified as described previously (Rozman Grinberg et al., 2018a); not shown: His6, N-terminal, kept
Molecule B1 came in with a stoichiometry N (LbNrdA per LbNrdB (α4β4)) in data set [1] of 1. For the same molecule, the “stoichiometry N” value in data set [4] is 2.
